Results published in article PMC5462737.

Columns and labels:
[1] = target: F1Fo ATP synthase from E. coli, labeled with ATTO 594 (E. coli) (UniProt P0ABB4)
[2] = target: F1Fo ATP synthase from E. coli, labeled with ATTO 594 (E. coli) (UniProt P0ABB4); remark: listed apart in the source

Chain of UniProt P0ABB4 (P0ABB4 whole entry, looked up): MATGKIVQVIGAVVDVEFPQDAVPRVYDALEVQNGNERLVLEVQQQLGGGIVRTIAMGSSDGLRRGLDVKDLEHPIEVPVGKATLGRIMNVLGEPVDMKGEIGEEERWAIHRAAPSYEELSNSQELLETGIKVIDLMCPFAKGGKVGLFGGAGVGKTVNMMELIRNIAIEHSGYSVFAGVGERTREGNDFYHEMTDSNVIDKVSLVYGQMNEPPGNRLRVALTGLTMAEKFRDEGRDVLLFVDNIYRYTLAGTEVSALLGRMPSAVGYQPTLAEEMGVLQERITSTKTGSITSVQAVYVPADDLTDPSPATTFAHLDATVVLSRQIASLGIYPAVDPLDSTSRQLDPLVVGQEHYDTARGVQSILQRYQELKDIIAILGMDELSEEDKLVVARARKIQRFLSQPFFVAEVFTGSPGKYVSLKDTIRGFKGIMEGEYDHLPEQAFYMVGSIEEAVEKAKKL

| Substance | normalized ATP-synthesis rate in 100 nm DOPC:DOPG vesicles, 0-40% DOPG, relative to 100% DOPC; value at 60% DOPC [1] [%] | coupled activity (ATP-synthesis rate driven by proton pumping of cyt. bo3; luciferin/luciferase luminescence) in 100 nm DOPC vesicles, relative to unlabeled proteins [2] [fold] | coupled activity (ATP-synthesis rate driven by proton pumping of cyt. bo3) in 100 nm DOPC vesicles, increase relative to unlabeled proteins [2] [fold] |
| --- | --- | --- | --- |
| cytochrome bo3 (ubiquinol oxidase) from E. coli, labeled with ATTO 647N (complex) | 60 | 5 | – |
| cytochrome bo3 (ubiquinol oxidase) from E. coli, labeled with Abberior STAR 635 (complex) | – | – | < 2 |
